Test results as given in patent publication US20190300618A1 (Merck Sharp & Dohme, published 2019).

Assays:
Experiment in all cases: flow cytometry, CHO-K1; single column;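 further: CHO-K1 cells transiently transfected with hCD27 alanine mutant constructs, anti-hCD27 antibody binding measured by flow cytometry, 30 min at 4 °C, wild-type hCD27 binding taken as 100%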
[1] = target: T1, W13A
T1 construct: also called hCD27 W13A
T1 receptor: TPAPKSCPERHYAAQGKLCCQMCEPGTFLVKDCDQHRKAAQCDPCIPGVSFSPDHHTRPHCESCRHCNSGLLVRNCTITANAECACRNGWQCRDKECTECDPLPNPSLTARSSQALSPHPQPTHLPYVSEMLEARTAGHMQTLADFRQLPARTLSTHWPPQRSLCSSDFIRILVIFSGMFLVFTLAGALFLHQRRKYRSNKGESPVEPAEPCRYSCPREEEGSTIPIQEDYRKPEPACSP
Description: (§1) The ability of several anti-hCD27 antibodies to bind to a series of hCD27 alanine mutants was determined using CHO-K1 cells, transiently transfected pCI-neo empty vector, pCI-neo.hCD27 and several pCI-neo.CD27Ala mutant constructs.
(§2) Detached cells were transferred to 96 wells round-bottomed well plates at approximately 1.2×10⁵ cells/well. After spinning down the cells, discarding the supernatants and re-suspending the cells in the residual volume, the primary antibodies were added and incubated for 30 minutes at 4° C. Cells were washed three times with DPBS/BSA 1%, followed by centrifugation, discarding of the supernatants and re-suspension in the residual volume. […] After washing once, antibody binding was detected using the HTS plate reader (FACS Canto II) and FlowJo software for data analysis. Debris, dead cells and doublets were excluded from the analysis. Binding was expressed as the geometric mean of the FITC signal, relative to antibody binding to hCD27, which was set at 100%.

[2] = target: T2, G16A
T2 construct: also called hCD27 G16A
T2 receptor: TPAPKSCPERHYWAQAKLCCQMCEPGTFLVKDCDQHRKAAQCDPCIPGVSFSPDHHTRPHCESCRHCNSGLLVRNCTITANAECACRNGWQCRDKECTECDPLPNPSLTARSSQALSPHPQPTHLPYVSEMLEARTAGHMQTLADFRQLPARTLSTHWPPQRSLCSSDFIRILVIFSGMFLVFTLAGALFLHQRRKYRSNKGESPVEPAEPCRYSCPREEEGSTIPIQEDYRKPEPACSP
Description: as §1, §2

[3] = target: T3, K31A
T3 construct: also called hCD27 K31A
T3 receptor: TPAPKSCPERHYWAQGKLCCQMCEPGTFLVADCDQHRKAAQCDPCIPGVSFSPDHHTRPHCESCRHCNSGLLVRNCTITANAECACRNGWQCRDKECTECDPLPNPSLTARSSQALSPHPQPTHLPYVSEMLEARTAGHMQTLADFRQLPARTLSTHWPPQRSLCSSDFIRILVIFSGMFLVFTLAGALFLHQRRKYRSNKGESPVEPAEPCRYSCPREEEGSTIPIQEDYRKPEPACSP
Description: as §1, §2

[4] = target: T4, H36A
T4 construct: also called hCD27 H36A
T4 receptor: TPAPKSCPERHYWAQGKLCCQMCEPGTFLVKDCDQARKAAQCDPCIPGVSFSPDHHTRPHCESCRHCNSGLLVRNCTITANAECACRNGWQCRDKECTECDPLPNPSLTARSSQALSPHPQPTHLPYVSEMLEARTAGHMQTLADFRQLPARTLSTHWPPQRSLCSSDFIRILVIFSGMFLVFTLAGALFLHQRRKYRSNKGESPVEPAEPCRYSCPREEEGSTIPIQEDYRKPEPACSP
Description: as §1, §2

[5] = target: T5, R37A
T5 construct: also called hCD27 R37A
T5 receptor: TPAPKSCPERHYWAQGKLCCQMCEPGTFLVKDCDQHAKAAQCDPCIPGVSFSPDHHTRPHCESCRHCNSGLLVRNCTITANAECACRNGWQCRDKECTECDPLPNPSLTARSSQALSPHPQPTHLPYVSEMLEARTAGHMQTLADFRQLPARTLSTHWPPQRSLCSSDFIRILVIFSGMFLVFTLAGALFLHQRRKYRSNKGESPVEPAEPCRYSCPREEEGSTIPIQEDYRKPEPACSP
Description: as §1, §2

[6] = target: T6, K38A
T6 construct: also called hCD27 K38A
T6 receptor: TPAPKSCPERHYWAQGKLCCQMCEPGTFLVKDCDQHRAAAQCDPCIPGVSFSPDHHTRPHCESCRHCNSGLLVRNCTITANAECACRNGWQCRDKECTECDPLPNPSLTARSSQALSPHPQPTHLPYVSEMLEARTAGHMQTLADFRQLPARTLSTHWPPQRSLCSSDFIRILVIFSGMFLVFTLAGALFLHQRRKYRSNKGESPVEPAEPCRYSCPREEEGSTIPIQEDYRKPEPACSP
Description: as §1, §2

[7] = target: T7, N88A
T7 construct: also called hCD27 N88A
T7 receptor: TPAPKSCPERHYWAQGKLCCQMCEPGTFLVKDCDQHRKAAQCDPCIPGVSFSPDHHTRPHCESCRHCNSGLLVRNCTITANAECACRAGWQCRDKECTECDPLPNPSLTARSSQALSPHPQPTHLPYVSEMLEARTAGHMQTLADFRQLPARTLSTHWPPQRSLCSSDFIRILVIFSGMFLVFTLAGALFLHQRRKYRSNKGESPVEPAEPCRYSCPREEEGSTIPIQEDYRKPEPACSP
Description: as §1, §2

[8] = target: T8, Q91A
T8 construct: also called hCD27 Q91A
T8 receptor: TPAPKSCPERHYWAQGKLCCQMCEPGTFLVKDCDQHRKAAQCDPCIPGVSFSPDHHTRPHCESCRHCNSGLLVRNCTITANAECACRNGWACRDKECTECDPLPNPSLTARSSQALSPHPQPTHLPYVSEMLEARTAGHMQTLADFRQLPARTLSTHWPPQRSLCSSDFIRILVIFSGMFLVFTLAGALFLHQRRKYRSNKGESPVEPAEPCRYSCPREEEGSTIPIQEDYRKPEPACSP
Description: as §1, §2

[9] = target: T9, R93A
T9 construct: also called hCD27 R93A
T9 receptor: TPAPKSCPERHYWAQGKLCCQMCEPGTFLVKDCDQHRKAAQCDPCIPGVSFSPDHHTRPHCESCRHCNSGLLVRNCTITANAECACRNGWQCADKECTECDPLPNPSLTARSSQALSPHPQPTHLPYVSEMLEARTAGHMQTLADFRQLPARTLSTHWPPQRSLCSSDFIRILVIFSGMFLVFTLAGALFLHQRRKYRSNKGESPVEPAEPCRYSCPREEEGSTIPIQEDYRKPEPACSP
Description: as §1, §2

[10] = target: T10, E9A
T10 construct: also called hCD27 E9A
T10 receptor: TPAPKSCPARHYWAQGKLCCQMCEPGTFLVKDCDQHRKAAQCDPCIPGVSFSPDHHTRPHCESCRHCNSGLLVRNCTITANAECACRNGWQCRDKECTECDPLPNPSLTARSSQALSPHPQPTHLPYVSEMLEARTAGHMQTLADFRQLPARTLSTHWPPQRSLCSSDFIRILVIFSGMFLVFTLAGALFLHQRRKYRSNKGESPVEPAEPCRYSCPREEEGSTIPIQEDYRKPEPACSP
Description: as §1, §2

B1: hCD27.15-6B (humanized hCD27.15, human IgG4, Clone 6B) (antibody, V domains shown)
VH: QVQLVQSGAEVKKPGASVKVSCKASGFIIKATYMHWVRQAPGQRLEWMGRIDPANGETKYDPKFQVRVTITADTSASTAYMELSSLRSEDTAVYYCARYAWYFDVWGQGTLVTVSS
VL: DIQMTQSPSSLSASVGDRVTITCRASENIYSFLAWYQQKPGKAPKLLIYHAKTLAEGVTSRFSGSGSGTDFTLTISSLQPEDSATYYCQHYYGSPLTFGQGTRLEIKR
notes: humanized version of hCD27.15 from WO2012/004367 with identical CDR regions; also called hCD27.15 (humanized 6B); hCD27.15 6B humanized antibody
[1]
  % of WT hCD27 binding (geo mean FITC): 71.4%
[2]
  % of WT hCD27 binding (geo mean FITC): 141%
[3]
  % of WT hCD27 binding (geo mean FITC): 30.3%
[4]
  % of WT hCD27 binding (geo mean FITC): 122%
[5]
  % of WT hCD27 binding (geo mean FITC): 106%
[6]
  % of WT hCD27 binding (geo mean FITC): 97.6%
[7]
  % of WT hCD27 binding (geo mean FITC): 132%
[8]
  % of WT hCD27 binding (geo mean FITC): 136%
[9]
  % of WT hCD27 binding (geo mean FITC): 131%
[10]
  % of WT hCD27 binding (geo mean FITC): 58.5%
